Paper PMC6615313

Test system: T1, SigL (sigma54) (Clostridium beijerinckii NCIMB 8052), ORF:07123114
T1 sequence: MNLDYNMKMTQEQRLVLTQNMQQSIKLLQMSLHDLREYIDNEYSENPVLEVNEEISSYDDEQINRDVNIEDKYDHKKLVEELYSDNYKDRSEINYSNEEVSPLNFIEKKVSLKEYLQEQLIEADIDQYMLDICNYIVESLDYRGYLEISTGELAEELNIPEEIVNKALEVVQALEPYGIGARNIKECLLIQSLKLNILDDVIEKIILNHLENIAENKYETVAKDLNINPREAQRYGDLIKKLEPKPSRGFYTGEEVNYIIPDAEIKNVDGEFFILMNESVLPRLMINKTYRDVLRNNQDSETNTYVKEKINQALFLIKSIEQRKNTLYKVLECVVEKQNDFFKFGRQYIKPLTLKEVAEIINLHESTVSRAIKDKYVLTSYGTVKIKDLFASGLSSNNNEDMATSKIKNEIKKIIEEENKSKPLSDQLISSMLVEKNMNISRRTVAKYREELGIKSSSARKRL
Test: EMSA
Settings: not stated; EMSA as described previously (ref 21), Cy5-labeled DNA, SigL up to 1500 nM

Sequence	binding
AGCCAGTGGCGATAAGGGTGTACAAAATATAGACATAAATAAAATTGATATATTTAGGAATTGATTACGAAAACCACAATATATAAGGTTTCATGGAAAAAATATGATTGGCATGCTTATTGCTAATAATAAAATTAACGGGAGTAGTAAGTGAACTAATATATATAACTTAATTTTTCCACAATCTTTAGTGCAATGCTATTTGCTATTTAAGGACTTATCGCCACTGGCT (double strand) [crt (crt-bcd-etfAB-moaC) promoter]	binds
AGCCAGTGGCGATAAGCCAGAAAAGAGTAAGATTCTCAAAATAGGACACTAAGTATGTGTCATAATGGCACATAGTGATTTTAAATGTCTTTTTAACAGGTTTCTTGTTTTTGGTATGGCTTTTGCTTATAAAATATAGTGAATATATTAACAGGTATATGTAAATTTTAATATTGCCATACTATTATAAAAAAGGAGAGATAATTCTTATCGCCACTGGCT (double strand) [butA promoter]	binds
AGCCAGTGGCGATAAGGGGGAAAATCTTTAAAAGTGTACAAAAAAAACACATATTTTTCTGATTTATTTTATTTAAAAAGGTAAATAGAATTAATAGTAAACAGTTTAAAAAAATAATATTTAAAGAGTTTAGTAGATTTGGAAAAGGTTTTCGACTTTTGGAAAGAAACTTGGCATCCTAATTGCTCTATAAAAAGGTATGAGGAGGGATTATGACTTATCGCCACTGGCT (double strand) [cotX (cotX-gntT) promoter]	binds
